IntAct's records for PubMed 11741956

B1: Proto-oncogene tyrosine-protein kinase LCK (Mus musculus), P06240 (parent)
chain: MGCVCSSNPEDDWMENIDVCENCHYPIVPLDSKISLPIRNGSEVRDPLVTYEGSLPPASPLQDNLVIALHSYEPSHDGDLGFEKGEQLRILEQSGEWWKAQSLTTGQEGFIPFNFVAKANSLEPEPWFFKNLSRKDAERQLLAPGNTHGSFLIRESESTAGSFSLSVRDFDQNQGEVVKHYKIRNLDNGGFYISPRITFPGLHDLVRHYTNASDGLCTKLSRPCQTQKPQKPWWEDEWEVPRETLKLVERLGAGQFGEVWMGYYNGHTKVAVKSLKQGSMSPDAFLAEANLMKQLQHPRLVRLYAVVTQEPIYIITEYMENGSLVDFLKTPSGIKLNVNKLLDMAAQIAEGMAFIEEQNYIHRDLRAANILVSDTLSCKIADFGLARLIEDNEYTAREGAKFPIKWTAPEAINYGTFTIKSDVWSFGILLTEIVTHGRIPYPGMTNPEVIQNLERGYRMVRPDNCPEELYHLMMLCWKERPEDRPTFDYLRSVLDDFFTATEGQYQPQP

Variants of: B1
Conditions: with cbl_human CBL

Variant	effect of a mutation on the interaction
W97A	decreasing interaction
